Measurements: US20200141935A1, “SYSTEM, METHOD, APPARATUS AND DIAGNOSTIC TEST FOR PREGNANCY” (BARCELONA INSTITUTE FOR GLOBAL HEALTH, priority 2017, published 2020)

Legend:
IgG [1] = assay: Multiplex bead-based immunoassay (Luminex): IgG levels (nMFI) against antigens, compared between groups; type: binding, pregnant women
Excerpt: (§1) Two multiplex suspension array panels were constructed to quantify IgG responses against P. falciparum recombinant proteins and synthetic peptides, using the xMAP™ technology and the Luminex® 100/200™ System (Luminex® Corp., Austin, Tex.). MagPlex® microspheres (magnetic carboxylated polystyrene microparticles, 5.6 μm) with different spectral signatures were selected for each protein (DBL3X, DBL5ϵ, DBL6ϵ, AMA1 and MSP119), peptides (25 VAR2CSA peptides and pCSP), tetanus toxin and bovine serum albumin (BSA). Antigens were covalently coupled to beads following a modification of the Luminex® Corporation protocol. Protein and peptide multiplex arrays were prepared by pooling together equal volumes of coated beads. Plasma samples or the product of DBS elution were analyzed in duplicate at dilution 1:400 for the protein array and 1:100 for the peptide array. A hyperimmune plasma pool composed by 23 plasmas from malaria infected Mozambican pregnant women (HIP-VAR2CSA) was included in each assay plate, in addition to blanks (wells without sample) to assess background levels. A minimum of 50 microspheres were read per spectral signature and results were exported as crude median fluorescent intensity ([…]). Duplicates were averaged and background MFIs were subtracted. A total of 224 plates were analyzed and the intra-assay variation (mean CV of replicates from 20 plasma samples per plate) ranged from 1.4% to 7.3% for the protein array and from 2.5% to 12.4% for the peptide array. The inter-assay variation (variability of positive pool [HIP-VAR2CSA] between 224 plates) was 5% for the protein array and 26% for the peptide array. Results were normalized (nMFI) to account for plate-to-plate variation by […] the background subtracted MFI of each sample with the value of the positive pool in the same plate and dividing by the median of positive pools in all plates.
(§2) Antibodies were eluted from DBS from Gabon, […] and Kenya, as previously described. Briefly, to achieve a concentration of eluted blood proteins equivalent to a 1:50 plasma dilution antibodies were eluted from four spots of approximately 3 mm in diameter with 200 μl Luminex® assay buffer (1% BSA, 0.05% sodium azide in filtrated PBS [Phosphate-buffered saline]). […]. Controls blood drops were artificially prepared using fresh erythrocytes (blood type 0, assuming a hematocrit approximately of 50%) and freeze plasma from 49 Spanish pregnant women. Filter papers were stored avoiding humidity at −20° C. in Barcelona.
(§3) Presence or absence of antibodies was defined by finite mixture models (FMM) for pregnancy-specific antigens (VAR2CSA peptides and recombinant domains) and by the mean plus 3 standard deviation (SD) of IgG response from pregnant women from Barcelona for general malaria antigens (AMA1, MSP119, and pCSP).
(§4) Data was fitted to a normal distribution by logarithmic transformation of nMFIs. Participant's baseline characteristics and parasitological outcomes were compared between study times and areas by univariate analysis (Fisher's tests for binary outcomes or t-Student test for continuous outcomes). Responses were considered not restricted to malaria when seroprevalences were 5% or high among Spanish pregnant women.
Linear regression models were used to compare antibody levels from Mozambican and Spanish pregnant women. The capacity of antibody levels to mimic malaria trends in Mozambique was analyzed by linear regression models (2010 was compared with 2003-2005 corresponding to a trend of malaria decrease and 2011-2012 with 2010 to a trend of increase) adjusted by treatment, parity, age and HIV.
The impact of P. falciparum infection during pregnancy on antibodies at delivery was assessed in linear regression models adjusted by age, parity, HIV and treatment. Changes in antibody levels due to parasite density (below or above 200) were assessed by linear regression models adjusted by age, parity, HIV and treatment. […]

IgG [2] = assay: Multiplex bead-based immunoassay: seroprevalence (finite mixture models or negative control cutoff); type: binding, pregnant women; details: for Seroprevalence MQ (%): IPTp with mefloquine; for Seroprevalence Non-A (%): non anemia
Excerpt: as §1, §2, §3, §4
Seroprevalences between countries (Benin, Gabon and Mozambique for HIV-uninfected and Kenya and Mozambique for HIV-infected), between IPTp intervention group (MQ vs SP for HIV-uninfected and MQ vs Placebo for HIV infected) and anemia status were compared by logistic regression models adjusted by parity, age and treatment.
The modification of the associations by HIV infection or parity was assessed by including interaction terms into the regression models.

IgG [3] = assay: Antibody dynamics during pregnancy (time to double, half-life, sero-reversion) from bead-based immunoassay; type: binding, pregnant Mozambican women
Excerpt: as §1
The adjusted effect of infection on antibody levels was analyzed using log-linear mixed-effects regression models incorporating Gaussian random intercepts. […] Time to double the antibody levels (T2x) and half-lives were calculated in weeks from the estimated rates and the boundaries at 95% confidence interval obtained from mixed-effects models for subjects suffering a P. falciparum infection at follow-up independent of antibody status at recruitment (Ab[−or+]/Pf+) and subjects seropositive at recruitment and no infection detected on follow-up (Ab+/Pf−), respectively. In situations that the increase rate is a negative value (rate below 1) or the decay rate is a positive value (rate above 1), the calculated T2x or half-life was reported as infinity. Similarly, the time to sero-reversion was calculated for these subjects using the ratio of the seropositivity cutoff by the average antibody titers at recruitment as decay, i.e. how many times the average titers need to be reduced to be equal the cutoff.

B1: AMA1: recombinant apical membrane antigen 1, from 3D7 strain (protein)
chain: QNYWEHPYQNSDVYRPINEHREHPKEYEYPLHQEHTYQQEDSGEDENTLQHAYPIDHEGAEPAPQEQNLFSSIEIVERSNYMGNPWTEYMAKYDIEEVHGSGIRVDLGEDAEVAGTQYRLPSGKCPVFGKGIIIENSNTTFLTPVATGNQYLKDGGFAFPPTEPLMSPMTLDEMRHFYKDNKYVKNLDELTLCSRHAGNMIPDNDKNSNYKYPAVYDDKDKKCHILYIAAQENNGPRYCNKDESKRNSMFCFRPAKDISFQNYTYLSKNVVDNWEKVCPRKNLQNAKFGLWVDGNCEDIPHVNEFPAIDLFECNKLVFELSASDQPKQYEQHLTDYEKIKEGFKNKNASMIKSAFLPTGAFKADRYKSHGKGYNWGNYNTETQKCEIFNVKPTCLINNSSYIATTALSHPIEVENNFPCSLYKDEIMKEIERESKRIKLNDNDDEGNKKIIAPRIFISDDKDSLKCPCDPEMVSNSTCRFFVCKCVERRAEVTSNNEVVVKEEYKDEYADIPEHKPTYDKMK
Immunoreactivity: recognition by IgGs at levels above BSA recognition (IgG [1]; 641 pregnant Mozambican women 2003-2012, mean nMFI above mean BSA nMFI plus 3 SD): above BSA recognition | Infection during pregnacy Infection vs no-infection ratio (95% CI) (IgG [1]; nMFI at delivery, Mozambican women followed 2011-2012, adjusted): 1.8 (1.30; 2.50) | Parity MG vs PG ratio (95% CI) (IgG [1]; nMFI at delivery, multigravid vs primigravid Mozambican women, adjusted): 1.2 (0.76; 1.9) | Exposure dependence Increase 2011-2012 vs 2010 Ratio (95% CI) (IgG [1]; nMFI ratio at delivery, Mozambique, adjusted by parity, age, treatment and HIV): 0.88 (0.73; 1.07) | PW Mz vs PW Bcn Ratio (95% CI) (IgG [1]; nMFI ratio, pregnant Mozambican women vs pregnant Spanish women (N=49)): 24.51 (18.53; 32.43) | Parasite density Low vs High ratio (95% CI) (IgG [1]; nMFI ratio, below or above 200 genomes per microliter, adjusted): 1.18 (0.96; 1.46) | SeroPrev Delivery % (IgG [2]; 239 pregnant Mozambican women followed 2011-2012): 89% | Seroprevalence MQ (%) (IgG [2]; HIV infected): 92% | Seroprevalence K (%) (IgG [2]; HIV infected, Kenya, at delivery): 95% | MQ (OR) (IgG [2]; HIV infected, MQ, Placebo as reference): 0.6 (0.32; 1.12) | M (OR) (IgG [2]; HIV infected, Mozambique, Kenya as reference): 0.76 (0.40; 1.45) | Seroprevalence M (%) (IgG [2]; HIV infected, Mozambique, at delivery): 93% | Seroprevalence PL (%) (IgG [2]; HIV infected, Placebo group): 95% | Seroprevalence A (%) (IgG [2]; HIV infected, anemia): 92% | A (OR) (IgG [2]; HIV infected, anemia, Non-A as reference): 0.79 (0.41; 1.51) | Seroprevalence Non-A (%) (IgG [2]; HIV infected): 94% | Seroprevalence B (%) (IgG [2]; HIV uninfected, Benin, at delivery): 100% | Seroprevalence G (%) (IgG [2]; HIV uninfected, Gabon, at delivery): 82% | Seroprevalence MQ (%) (IgG [2]; HIV uninfected): 96% | Seroprevalence SP (%) (IgG [2]; HIV uninfected, IPTp with sulfadoxine-pyrimethamine): 96% | Seroprevalence M (%) (IgG [2]; HIV uninfected, Mozambique, at delivery): 93% | Seroprevalence A (%) (IgG [2]; HIV uninfected, anemia): 96% | Seroprevalence Non-A (%) (IgG [2]; HIV uninfected): 96% | Seroprevalence in Tanzania (IgG [2]; HIV-uninfected women, area of Tanzania where no malaria infection was observed): 42% | Seroprevalence 2003/4 (%) (IgG [2]; Mozambican pregnant women at delivery, 2003/4): 99% | Seroprevalence 2005 (%) (IgG [2]; Mozambican pregnant women at delivery, 2005): 98% | Seroprevalence 2010 (%) (IgG [2]; Mozambican pregnant women at delivery, 2010): 93% | Seroprevalence 2011 (%) (IgG [2]; Mozambican pregnant women at delivery, 2011): 89% | Seroprevalence 2012 (%) (IgG [2]; Mozambican pregnant women at delivery, 2012): 92% | SeroPrev PW Bcn (%) (IgG [2]; seroprevalence among pregnant Spanish women never exposed to malaria): 2% | Decrease (OR) (IgG [2]; seroprevalence odds ratio 2010 vs 2003/5, Mozambique, adjusted): 0.24 (0.06; 0.93) | Increase (OR) (IgG [2]; seroprevalence odds ratio 2011/12 vs 2010, Mozambique, adjusted): 0.58 (0.29; 1.16) | Antibody dynamics Sero-revertion weeks (95% CI) (IgG [3]; time to sero-negativisation, seropositive at recruitment, no infection on follow-up): 544.49 (242.56; ∞) weeks | Antibody dynamics Time to double weeks (95% CI) (IgG [3]; women with P. falciparum infection on follow-up, log-linear mixed-effects model): 91.65 (39.61; ∞) weeks
